Test results taken from the supplement of paper PMC9112550, “Optimization of the antimicrobial peptide Bac7 by deep mutational scanning” (BMC Biology, 2022).

Test system: Escherichia coli TOP10
Assay: shrunken log2 fold change of peptide-encoding DNA abundance (4.5 h post-induction vs induction); higher = less antimicrobial activity (less host growth inhibition)
Conditions: time post-induction: 4.5 h; library: site-saturation at positions 5, 18, 19, 20
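Further: peptides expressed intracellularly from a pBAD plasmid library in pooled LB shake-flask culture, induced with 0.3% L-arabinose, DNA abundance read by NGS, three biological replicates, DESeq2 with apeglm shrinkage.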

| Sequence | shrunken log2 fold change |
| --- | --- |
| RRIRKRPPRLPRPRPRPTPLPRP | 0.848 |
| RRIRQRPPRLPRPRPRPEMAPRP | -0.0608 |
| RRIRSRPPRLPRPRPRPYNLPRP | -0.573 |
| RRIRYRPPRLPRPRPRPNYLPRP | -0.161 |
| RRIRMRPPRLPRPRPRPPQGPRP | 0.834 |
| RRIRMRPPRLPRPRPRPQRCPRP | 0.551 |
| RRIRWRPPRLPRPRPRPGMGPRP | 0.525 |
| RRIRWRPPRLPRPRPRPHYRPRP | 0.0266 |
| RRIRSRPPRLPRPRPRPMRNPRP | 0.628 |
| RRIRVRPPRLPRPRPRPYLQPRP | -0.946 |
| RRIRCRPPRLPRPRPRPLWCPRP | -0.208 |
| RRIRSRPPRLPRPRPRPGRCPRP | 0.247 |
| RRIRHRPPRLPRPRPRPNVNPRP | -0.555 |
| RRIRMRPPRLPRPRPRPKAGPRP | 1.3 |
| RRIRMRPPRLPRPRPRPESGPRP | 0.908 |
| RRIRYRPPRLPRPRPRPTMYPRP | -0.33 |
| RRIRIRPPRLPRPRPRPRITPRP | -0.354 |
| RRIRMRPPRLPRPRPRPCDNPRP | 0.0146 |
| RRIRERPPRLPRPRPRPISFPRP | -0.441 |
| RRIRYRPPRLPRPRPRPWIAPRP | -0.791 |
| RRIRYRPPRLPRPRPRPLHFPRP | -0.0434 |
| RRIRLRPPRLPRPRPRPHVRPRP | 0.0652 |

| Sequence | shrunken log2 fold change |
| --- | --- |
| RRIRWRPPRLPRPRPRPCDCPRP | -0.291 |
| RRIRVRPPRLPRPRPRPGDHPRP | -0.0257 |
| RRIRIRPPRLPRPRPRPWWMPRP | -0.0772 |
| RRIRVRPPRLPRPRPRPIVCPRP | -0.0744 |
| RRIRDRPPRLPRPRPRPSTSPRP | -0.115 |
| RRIRMRPPRLPRPRPRPVENPRP | -0.0952 |
| RRIRIRPPRLPRPRPRPHLQPRP | -0.343 |
| RRIRRRPPRLPRPRPRPVTVPRP | 0.124 |
| RRIRRRPPRLPRPRPRPIWCPRP | -0.0104 |
| RRIRYRPPRLPRPRPRPLHNPRP | -0.507 |
| RRIRKRPPRLPRPRPRPTSFPRP | -0.044 |
| RRIRQRPPRLPRPRPRPCCDPRP | -0.0081 |
| RRIRHRPPRLPRPRPRPNMDPRP | -0.173 |
| RRIRMRPPRLPRPRPRPNNQPRP | -0.0328 |
| RRIRVRPPRLPRPRPRPSLMPRP | -0.368 |
| RRIRIRPPRLPRPRPRPAFGPRP | 0.209 |
| RRIRSRPPRLPRPRPRPHAFPRP | -1.44 |
| RRIRSRPPRLPRPRPRPMKEPRP | -0.338 |
| RRIRRRPPRLPRPRPRPRPCPRP | 0.384 |
| RRIRWRPPRLPRPRPRPCRYPRP | -0.129 |
| RRIRNRPPRLPRPRPRPLDYPRP | -0.309 |
| RRIRQRPPRLPRPRPRPFKFPRP | -0.00873 |

| Sequence | shrunken log2 fold change |
| --- | --- |
| RRIRPRPPRLPRPRPRPCVVPRP | 1.73 |
| RRIRQRPPRLPRPRPRPSSQPRP | -0.395 |
| RRIRLRPPRLPRPRPRPNTKPRP | -0.543 |
| RRIRLRPPRLPRPRPRPLASPRP | 0.177 |
| RRIRYRPPRLPRPRPRPFFKPRP | -0.518 |
| RRIRARPPRLPRPRPRPTNQPRP | 0.153 |
| RRIRHRPPRLPRPRPRPGQDPRP | 0.0217 |
| RRIRIRPPRLPRPRPRPSMMPRP | -0.886 |
| RRIRFRPPRLPRPRPRPTDEPRP | 0.00361 |
| RRIRARPPRLPRPRPRPSTRPRP | 0.23 |
| RRIRERPPRLPRPRPRPHPMPRP | -0.334 |
| RRIRQRPPRLPRPRPRPAPKPRP | 0.148 |
| RRIRSRPPRLPRPRPRPSVEPRP | -0.0505 |
| RRIRYRPPRLPRPRPRPFSAPRP | -1.07 |
| RRIRRRPPRLPRPRPRPERTPRP | 0.232 |
| RRIRNRPPRLPRPRPRPVNCPRP | -0.147 |
| RRIRYRPPRLPRPRPRPITDPRP | -0.162 |
| RRIRQRPPRLPRPRPRPEMPPRP | 0.188 |
| RRIRARPPRLPRPRPRPPTKPRP | 0.486 |
| RRIRNRPPRLPRPRPRPNWFPRP | -0.145 |
| RRIRQRPPRLPRPRPRPTDEPRP | -0.131 |
| RRIRIRPPRLPRPRPRPVHMPRP | -0.315 |

| Sequence | shrunken log2 fold change |
| --- | --- |
| RRIRFRPPRLPRPRPRPLDMPRP | -0.372 |
| RRIRHRPPRLPRPRPRPNILPRP | -0.448 |
| RRIRIRPPRLPRPRPRPNEQPRP | 0.0369 |
| RRIRARPPRLPRPRPRPEAEPRP | 1.61 |
| RRIRMRPPRLPRPRPRPTQCPRP | 0.00706 |
| RRIRCRPPRLPRPRPRPSVKPRP | -0.765 |
| RRIRMRPPRLPRPRPRPMERPRP | -0.0334 |
| RRIRTRPPRLPRPRPRPNFVPRP | 0.0615 |
| RRIRPRPPRLPRPRPRPCNCPRP | -0.107 |
| RRIRVRPPRLPRPRPRPVWPPRP | 0.257 |
| RRIRFRPPRLPRPRPRPEWDPRP | 0.168 |
| RRIRCRPPRLPRPRPRPGALPRP | 0.264 |
| RRIRMRPPRLPRPRPRPWTRPRP | -0.00172 |
| RRIRNRPPRLPRPRPRPPGLPRP | 0.46 |
| RRIRFRPPRLPRPRPRPQRAPRP | 0.462 |
| RRIRRRPPRLPRPRPRPPCYPRP | 0.473 |
| RRIRLRPPRLPRPRPRPYVIPRP | -0.662 |
| RRIRMRPPRLPRPRPRPKVRPRP | 0.00262 |
| RRIRNRPPRLPRPRPRPIFLPRP | -0.182 |
| RRIRMRPPRLPRPRPRPNTTPRP | 0.191 |
| RRIRGRPPRLPRPRPRPVGFPRP | 0.984 |
| RRIRDRPPRLPRPRPRPFSSPRP | -0.0177 |

| Sequence | shrunken log2 fold change |
| --- | --- |
| RRIRMRPPRLPRPRPRPTRVPRP | 0.25 |
| RRIRYRPPRLPRPRPRPQMWPRP | -0.213 |
| RRIRIRPPRLPRPRPRPVDQPRP | -0.0969 |
| RRIRQRPPRLPRPRPRPQKIPRP | -0.29 |
| RRIRPRPPRLPRPRPRPNMLPRP | -0.367 |
| RRIRCRPPRLPRPRPRPMYCPRP | -1.66 |
| RRIRFRPPRLPRPRPRPLEDPRP | -0.0439 |
| RRIRARPPRLPRPRPRPCNRPRP | 0.0805 |
| RRIRRRPPRLPRPRPRPEIGPRP | 0.244 |
| RRIRWRPPRLPRPRPRPTIRPRP | -0.343 |
| RRIRERPPRLPRPRPRPIAFPRP | 0.0152 |
| RRIRVRPPRLPRPRPRPYGWPRP | -0.0905 |
| RRIRLRPPRLPRPRPRPQVIPRP | -0.136 |
| RRIRPRPPRLPRPRPRPVNVPRP | -0.326 |
| RRIRMRPPRLPRPRPRPFMRPRP | 0.345 |
| RRIRIRPPRLPRPRPRPGQSPRP | 0.0669 |
| RRIRDRPPRLPRPRPRPITAPRP | -0.283 |
| RRIRTRPPRLPRPRPRPGILPRP | -0.0375 |
| RRIRLRPPRLPRPRPRPWWFPRP | -0.21 |
| RRIRYRPPRLPRPRPRPMMKPRP | -0.0161 |
| RRIRDRPPRLPRPRPRPIVCPRP | 0.0446 |
